Assay [1] deals with empty disulfide-stabilized HLA-A*02:01 molecule (HLA-A*02:01(Y84C/A139C) heavy chain with beta-2 microglobulin) (human). The experiment in a line: native MS.
Assay [2] shares this target. The experiment in a line: nDSF thermal shift. (Differential scanning fluorimetry follows unfolding on heating by fluorescence.)

B1: NT8 (peptide)
peptide: NLVPMVAT
As to B1, the Kd in assay [1] was found to be 30 µM.

B2: LV8 (peptide)
peptide: LVPMVATV
With B2, the ΔTm in assay [2] amounted to 11.6 K. In addition, the Kd in assay [1] was 0.07 µM.

B3: GV9 (peptide)
peptide: GLGGGGGGV
With B3, the ΔTm in assay [2] worked out at 6.4 K. Besides, the percent of dsA2 as dsA2/pep (AUC) at 10 V in assay [1] is 43%.

B4: MV5 (peptide)
peptide: MVATV
B4 yielded a stoichiometry N in assay [1] of 2.

A word on the Kd: it is the concentration at which binding is half-saturated. A lower Kd goes with a tighter complex. As usually defined, the stoichiometry N is a count of units in the complex or per binding partner.
